B1: KpAmn (K. pneumoniae adenosine monophosphate nucleosidase) (Klebsiella pneumoniae) (protein)
chain: MNIKAASLTPEQALAELEARYEASVTALRKAIGDYIDHNTLPDTEARAEGLFVYPQLSVSWDGADHKALKTRAWGRFTHAGCYTTTITNPKLFRNYLLEQLTLLYQDYGAHISVELSQHEIPYPYVIDGSTLTLDRSMSAGLTRYFPTTELSQIGDETADGLFHPTEFYPLSHFDARRVDFSLARLRHYTGTPAEHFQPYVLFTNYTRYVDEFVSWGCSQILDPDSPYIALSCAGGIWITAETEAPEQAISDLAWKKHQMPAWHLITHDGKGITLINIGVGPANAKTICDHLAVLRPDVWLMIGHCGGLRESQAIGDYVLAHAYLRDDHVLDAVLPPDIPIPSIAEVQRALYDATKQVSGMPGEEVKQRLRTGTVVTTDDRNWELRYSASALRFNLSRAVAIDMESATIAAQGYRFRVPYGTLLCVSDKPLHGEIKLPGQANRFYEGAISEHLQIGIRAIDLLRAEGDHMHSRKLRTFNEPPFR
notes: expressed in E. coli BL21(DE3) R3 Rosetta; homohexamer, D3 symmetry; active site from two chains

Key:
[1] = target: Klebsiella pneumoniae adenosine monophosphate nucleosidase (Klebsiella pneumoniae); test: cryo-EM structure; purified KpAmn vitrified on a C-flat grid (Vitrobot, 4°C, >90% humidity), Titan Krios 300 kV; apo; D3 symmetry confirmed by ab initio models and enforced in refinement
purified protein = substrate: Nc1ncnc2c1ncn2[C@@H]1O[C@H](COP(=O)(O)O)[C@@H](O)[C@H]1O; test: purified protein; assay type: biochemical, Klebsiella pneumoniae; conditions: 25 °C, 20 mM HEPES pH 7.5, 100 mM NaCl, 1 mM MnCl2, no ATP activator listed

| Molecule | stoichiometry N [1] | Km (purified protein) |
| --- | --- | --- |
| Klebsiella pneumoniae adenosine monophosphate nucleosidase (enzyme) | 6 |  |
| B1 |  | 390 µM |

Reference: PMC9584410, “Structure of Klebsiella pneumoniae adenosine monophosphate nucleosidase” (PLoS ONE, 2022)
